# Source: publication PMC9935876, “Structure of the planar cell polarity cadherins Fat4 and Dachsous1” (Nature Communications, 2023)
# Values joined by “and” are separate entries in the source; they are usually repeats but may differ in a detail not shown here. Identical values can stand only once.
# T1: Human Fat4(EC1-4) R152A (human, UniProt Q6V0I7 43-475, R152A)
# T1 construct: human Fat4, EC1-EC4, aa43-475, with R152A in EC2; also called Fat4R152A(EC1-4); Fat4R152A
# T1 sequence: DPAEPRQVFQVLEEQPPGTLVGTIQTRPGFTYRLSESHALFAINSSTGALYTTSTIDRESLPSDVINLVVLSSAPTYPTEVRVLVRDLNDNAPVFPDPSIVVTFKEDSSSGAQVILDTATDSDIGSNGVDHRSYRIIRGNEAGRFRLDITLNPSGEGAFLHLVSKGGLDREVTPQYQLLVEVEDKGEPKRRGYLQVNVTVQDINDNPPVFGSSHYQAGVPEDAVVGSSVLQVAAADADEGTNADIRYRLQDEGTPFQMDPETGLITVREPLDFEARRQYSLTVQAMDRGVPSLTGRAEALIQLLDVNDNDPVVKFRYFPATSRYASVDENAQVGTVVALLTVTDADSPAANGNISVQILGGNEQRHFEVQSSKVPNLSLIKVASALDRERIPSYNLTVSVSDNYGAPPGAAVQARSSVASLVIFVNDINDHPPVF
# T2: Human Fat4(EC1-4) F358A (human, UniProt Q6V0I7 43-475, F358A)
# T2 construct: human Fat4, EC1-EC4, aa43-475, with F358A in EC4; also called Fat4F358A(EC1-4); Fat4F358A
# T2 sequence: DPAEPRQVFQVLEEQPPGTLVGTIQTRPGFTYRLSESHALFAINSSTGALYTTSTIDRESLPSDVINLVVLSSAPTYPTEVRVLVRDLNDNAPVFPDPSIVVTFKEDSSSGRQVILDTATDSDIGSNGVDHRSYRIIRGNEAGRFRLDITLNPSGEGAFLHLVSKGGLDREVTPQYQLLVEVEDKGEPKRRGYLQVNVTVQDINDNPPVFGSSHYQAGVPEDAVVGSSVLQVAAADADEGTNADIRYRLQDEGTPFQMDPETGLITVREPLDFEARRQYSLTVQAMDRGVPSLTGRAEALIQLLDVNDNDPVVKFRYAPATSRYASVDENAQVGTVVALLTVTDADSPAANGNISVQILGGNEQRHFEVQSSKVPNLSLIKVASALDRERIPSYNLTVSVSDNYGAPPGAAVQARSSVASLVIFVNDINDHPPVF
# T3: Human Fat4(EC1-4) (human, UniProt Q6V0I7 43-475)
# T3 construct: human Fat4, extracellular cadherin domains EC1-EC4, aa43-475; A 3C protease site stands between the protein and the C-terminal BAP-tag and His6; also called WT
# T3 sequence: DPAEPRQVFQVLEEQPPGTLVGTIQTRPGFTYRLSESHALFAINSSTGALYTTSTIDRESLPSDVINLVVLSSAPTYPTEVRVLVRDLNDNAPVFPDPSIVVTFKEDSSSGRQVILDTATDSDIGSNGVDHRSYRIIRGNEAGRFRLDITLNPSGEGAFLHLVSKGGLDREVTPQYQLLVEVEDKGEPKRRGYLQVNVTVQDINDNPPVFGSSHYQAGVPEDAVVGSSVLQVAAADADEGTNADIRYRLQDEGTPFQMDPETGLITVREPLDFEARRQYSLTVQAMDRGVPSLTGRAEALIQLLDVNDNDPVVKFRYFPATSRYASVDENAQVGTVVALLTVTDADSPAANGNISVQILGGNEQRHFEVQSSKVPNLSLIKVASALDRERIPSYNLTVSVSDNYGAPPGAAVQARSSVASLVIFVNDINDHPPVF
# T4: Human Fat4(EC1-4) (human, UniProt Q6V0I7 43-475)
# T4 construct: Fat4, human, EC1-EC4, aa43-475; Tags were cleaved only for the constructs meant for co-crystallisation; nothing is said for ITC; also called Fat4 EC1–EC4
# T4 sequence: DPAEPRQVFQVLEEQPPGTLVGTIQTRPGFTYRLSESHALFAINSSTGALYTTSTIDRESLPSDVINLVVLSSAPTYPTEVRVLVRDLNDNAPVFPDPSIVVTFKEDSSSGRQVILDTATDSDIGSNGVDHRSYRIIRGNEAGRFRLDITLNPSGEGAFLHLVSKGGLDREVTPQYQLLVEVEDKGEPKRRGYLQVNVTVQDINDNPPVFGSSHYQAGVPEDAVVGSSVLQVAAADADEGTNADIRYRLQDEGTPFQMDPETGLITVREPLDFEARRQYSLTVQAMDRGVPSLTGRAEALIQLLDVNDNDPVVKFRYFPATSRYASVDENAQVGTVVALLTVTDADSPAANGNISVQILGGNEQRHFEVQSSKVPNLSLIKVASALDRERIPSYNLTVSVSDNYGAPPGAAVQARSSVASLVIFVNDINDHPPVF
# T5: Human Fat4F358A(EC1-4) (human, UniProt Q6V0I7 43-475, F358A)
# T5 construct: Fat4, human, EC1-EC4, aa43-475, with F358A in EC4
# T5 sequence: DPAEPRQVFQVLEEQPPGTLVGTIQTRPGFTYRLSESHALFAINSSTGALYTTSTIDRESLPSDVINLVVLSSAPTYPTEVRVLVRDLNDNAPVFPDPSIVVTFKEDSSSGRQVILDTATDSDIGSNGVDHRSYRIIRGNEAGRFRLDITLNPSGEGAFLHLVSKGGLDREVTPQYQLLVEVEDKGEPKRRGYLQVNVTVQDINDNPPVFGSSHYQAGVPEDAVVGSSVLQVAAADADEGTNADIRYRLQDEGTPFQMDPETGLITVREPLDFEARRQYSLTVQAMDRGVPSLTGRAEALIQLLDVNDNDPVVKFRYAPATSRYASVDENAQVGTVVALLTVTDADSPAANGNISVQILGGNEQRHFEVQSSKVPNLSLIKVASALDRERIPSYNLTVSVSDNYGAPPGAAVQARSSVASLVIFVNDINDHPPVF
# Experiments:
# Details in all cases: both partners purified
# [1] = biological target: T1, Human Fat4(EC1-4) R152A; experiment: ITC; MicroCal ITC200; Fat4 constructs 30 µM in the sample cell, Dchs1 constructs 300 µM as titrants; 20 °C; one set of sites
# [2] = biological target: T2, Human Fat4(EC1-4) F358A; experiment: as above
# [3] = biological target: T3, Human Fat4(EC1-4); experiment: as above
# [4] = biological target: T4, Human Fat4(EC1-4); experiment: ITC; MicroCal ITC200; Fat4 construct 30 µM in the sample cell, Dchs1 construct 300 µM as titrant; 20 °C; fitted with one set of sites; two independent experiments
# [5] = biological target: T5, Human Fat4F358A(EC1-4); experiment: as above
# [6] = biological target: T4, Human Fat4(EC1-4); experiment: as above; remark: listed apart in the source
binder,measurement,setting,value
"Human Dchs1(EC1-4) (domain or fragment, human Dachsous1 (Dchs1), extracellular cadherin domains EC1-EC4, aa43-472; A 3C protease site stands between the protein and the C-terminal BAP-tag and His6; also called Dachsous1; WT) DPQAGSLDLQIDEEQPAGTLIGDISAGLPAGTAAPLMYFISAQEGSGVGTDLAIDEHSGVVRTARVLDREQRDRYRFTAVTPDGATVEVTVRVADINDHAPAFPQARAALQVPEHTAFGTRYPLEPARDADAGRLGTQGYALSGDGAGETFRLETRPGPDGTPVPELVVTGELDRENRSHYMLQLEAYDGGSPPRRAQALLDVTLLDINDHAPAFNQSRYHAVVSESLAPGSPVLQVFASDADAGVNGAVTYEINRRQSEGDGPFSIDAHTGLLQLERPLDFEQRRVHELVVQARDGGAHPELGSAFVTVHVRDANDNQPSMTVIFLSADGSPQVSEAAPPGQLVARISVSDPDDGDFAHVNVSLEGGEGHFALSTQDSVIYLVCVARRLDREERDAYNLRVTATDSGSPPLRAEAAFVLHVTDVNDNAPAF",stoichiometry N,[1],0.965 ± 0.0359 sites
same,stoichiometry N,[2],0.915 ± 0.0119 sites
same,stoichiometry N,[3],1.06 ± 0.0114 sites
"Human Dchs1(EC1-4) (domain or fragment, Dchs1 (Dachsous1), human, EC1-EC4, aa43-472; also called Dachsous1 EC1–EC4) DPQAGSLDLQIDEEQPAGTLIGDISAGLPAGTAAPLMYFISAQEGSGVGTDLAIDEHSGVVRTARVLDREQRDRYRFTAVTPDGATVEVTVRVADINDHAPAFPQARAALQVPEHTAFGTRYPLEPARDADAGRLGTQGYALSGDGAGETFRLETRPGPDGTPVPELVVTGELDRENRSHYMLQLEAYDGGSPPRRAQALLDVTLLDINDHAPAFNQSRYHAVVSESLAPGSPVLQVFASDADAGVNGAVTYEINRRQSEGDGPFSIDAHTGLLQLERPLDFEQRRVHELVVQARDGGAHPELGSAFVTVHVRDANDNQPSMTVIFLSADGSPQVSEAAPPGQLVARISVSDPDDGDFAHVNVSLEGGEGHFALSTQDSVIYLVCVARRLDREERDAYNLRVTATDSGSPPLRAEAAFVLHVTDVNDNAPAF",Kd,[4],0.488 µM and 0.463 µM
same,Kd,[5],0.95 µM and 0.77 µM
"Human Dchs1F79A(EC1-4) (domain or fragment, Dchs1 (Dachsous1), human, EC1-EC4, aa43-472, with F79A in EC1) DPQAGSLDLQIDEEQPAGTLIGDISAGLPAGTAAPLMYAISAQEGSGVGTDLAIDEHSGVVRTARVLDREQRDRYRFTAVTPDGATVEVTVRVADINDHAPAFPQARAALQVPEHTAFGTRYPLEPARDADAGRLGTQGYALSGDGAGETFRLETRPGPDGTPVPELVVTGELDRENRSHYMLQLEAYDGGSPPRRAQALLDVTLLDINDHAPAFNQSRYHAVVSESLAPGSPVLQVFASDADAGVNGAVTYEINRRQSEGDGPFSIDAHTGLLQLERPLDFEQRRVHELVVQARDGGAHPELGSAFVTVHVRDANDNQPSMTVIFLSADGSPQVSEAAPPGQLVARISVSDPDDGDFAHVNVSLEGGEGHFALSTQDSVIYLVCVARRLDREERDAYNLRVTATDSGSPPLRAEAAFVLHVTDVNDNAPAF",Kd,[6],1.56 µM and 2.48 µM
